Assay results from the Human Domainome abundance scans (Beltran et al. 2025).
± gives the uncertainty stated by the source.

B1: DnaJ homolog subfamily C member 5, residues 16 to 77; numbered along this chain, Q9H3Z4 (parent)
chain: LYHVLGLDKNATSDDIKKSYRKLALKYHPDKNPDNPEAADKFKEINNAHAILTDATKRNIYD

Variants of: B1
Assay: abundance fitness (aPCA) (normalised: wild type 0, dead -1); higher = more abundant; growth selection in yeast, the domain comes from the species named
Settings: Homo sapiens

LYHVLGLDKNATSDDIKKSYRKLALKYHADKNPDNPEAADKFKEINNAHAILTDATKRNIYD and LYHVLGLDKNATSDDIKKSYRKLALKYHSDKNPDNPEAADKFKEINNAHAILTDATKRNIYD are within error of each other in abundance fitness: -0.053 ± 0.071 for the first, -0.159 ± 0.065 for the second.

LYHVLGLDKNATSDDIKKSYRKLALKYHVDKNPDNPEAADKFKEINNAHAILTDATKRNIYD and LYHVLGLDKNATSDDIKKSYRKLALKYHQDKNPDNPEAADKFKEINNAHAILTDATKRNIYD are within error of each other in abundance fitness: -0.414 ± 0.062 for the first, -0.377 ± 0.072 for the second.

Going from LYHVLGLDKNATSDDIKKSYRKLALKYHTDKNPDNPEAADKFKEINNAHAILTDATKRNIYD to LYHVLGLDKNATSDDIKKSYRKLALKNHPDKNPDNPEAADKFKEINNAHAILTDATKRNIYD, the abundance fitness falls from -0.292 ± 0.069 to -0.83 ± 0.36.

Compared with LYHVLGLDKNATSDDIKKSYRKLALKPHPDKNPDNPEAADKFKEINNAHAILTDATKRNIYD, LYHVLGLDKNATSDDIKKSYRKLALKDHPDKNPDNPEAADKFKEINNAHAILTDATKRNIYD is higher in abundance fitness: -0.61 ± 0.16 for the first, -0.316 ± 0.12 for the second.

LYHVLGLDKNATSDDIKKSYRKLALKSHPDKNPDNPEAADKFKEINNAHAILTDATKRNIYD and LYHVLGLDKNATSDDIKKSYRKLALKKHPDKNPDNPEAADKFKEINNAHAILTDATKRNIYD are within error of each other in abundance fitness: -0.21 ± 0.083 for the first, -0.379 ± 0.12 for the second.

Going from LYHVLGLDKNATSDDIKKSYRKLALKWHPDKNPDNPEAADKFKEINNAHAILTDATKRNIYD to LYHVLGLDKNATSDDIKKSYRKLALKVHPDKNPDNPEAADKFKEINNAHAILTDATKRNIYD, the abundance fitness falls from 0.231 ± 0.099 to -0.571 ± 0.095.

Compared with LYHVLGLDKNATSDDIKKSYRKLALKEHPDKNPDNPEAADKFKEINNAHAILTDATKRNIYD, LYHVLGLDKNATSDDIKKSYRKLALKLHPDKNPDNPEAADKFKEINNAHAILTDATKRNIYD is lower in abundance fitness: -0.07 ± 0.091 for the first, -0.326 ± 0.062 for the second.

Going from LYHVLGLDKNATSDDIKKSYRKLALKHHPDKNPDNPEAADKFKEINNAHAILTDATKRNIYD to LYHVLGLDKNATSDDIKKSYRKLALKRHPDKNPDNPEAADKFKEINNAHAILTDATKRNIYD, the abundance fitness falls from 0.185 ± 0.24 to -0.543 ± 0.079.

Compared with LYHVLGLDKNATSDDIKKSYRKLALKIHPDKNPDNPEAADKFKEINNAHAILTDATKRNIYD, LYHVLGLDKNATSDDIKKSYRKLALKAHPDKNPDNPEAADKFKEINNAHAILTDATKRNIYD is higher in abundance fitness: -0.715 ± 0.22 for the first, -0.344 ± 0.1 for the second.

Going from LYHVLGLDKNATSDDIKKSYRKLALKMHPDKNPDNPEAADKFKEINNAHAILTDATKRNIYD to LYHVLGLDKNATSDDIKKSYRKLALKFHPDKNPDNPEAADKFKEINNAHAILTDATKRNIYD, the abundance fitness rises from -0.196 ± 0.12 to 0.185 ± 0.14.

LYHVLGLDKNATSDDIKKSYRKLALKTHPDKNPDNPEAADKFKEINNAHAILTDATKRNIYD and LYHVLGLDKNATSDDIKKSYRKLALKCHPDKNPDNPEAADKFKEINNAHAILTDATKRNIYD are within error of each other in abundance fitness: -0.157 ± 0.16 for the first, -0.239 ± 0.19 for the second.

Compared with LYHVLGLDKNATSDDIKKSYRKLALKGHPDKNPDNPEAADKFKEINNAHAILTDATKRNIYD, LYHVLGLDKNATSDDIKKSYRKLALEYHPDKNPDNPEAADKFKEINNAHAILTDATKRNIYD is higher in abundance fitness: -0.27 ± 0.077 for the first, 0.155 ± 0.08 for the second.

LYHVLGLDKNATSDDIKKSYRKLALWYHPDKNPDNPEAADKFKEINNAHAILTDATKRNIYD and LYHVLGLDKNATSDDIKKSYRKLALHYHPDKNPDNPEAADKFKEINNAHAILTDATKRNIYD are within error of each other in abundance fitness: -0.477 ± 0.094 for the first, -0.239 ± 0.15 for the second.

First: LYHVLGLDKNATSDDIKKSYRKLALGYHPDKNPDNPEAADKFKEINNAHAILTDATKRNIYD
Second: LYHVLGLDKNATSDDIKKSYRKLALVYHPDKNPDNPEAADKFKEINNAHAILTDATKRNIYD
The abundance fitness of the first is lower: -0.415 ± 0.079 for the first, -0.13 ± 0.06 for the second.

LYHVLGLDKNATSDDIKKSYRKLALDYHPDKNPDNPEAADKFKEINNAHAILTDATKRNIYD and LYHVLGLDKNATSDDIKKSYRKLALSYHPDKNPDNPEAADKFKEINNAHAILTDATKRNIYD are within error of each other in abundance fitness: -0.12 ± 0.14 for the first, -0.211 ± 0.079 for the second.

Compared with LYHVLGLDKNATSDDIKKSYRKLALFYHPDKNPDNPEAADKFKEINNAHAILTDATKRNIYD, LYHVLGLDKNATSDDIKKSYRKLALAYHPDKNPDNPEAADKFKEINNAHAILTDATKRNIYD is higher in abundance fitness: -0.385 ± 0.13 for the first, -0.081 ± 0.065 for the second.

First: LYHVLGLDKNATSDDIKKSYRKLALRYHPDKNPDNPEAADKFKEINNAHAILTDATKRNIYD
Second: LYHVLGLDKNATSDDIKKSYRKLALIYHPDKNPDNPEAADKFKEINNAHAILTDATKRNIYD
The abundance fitness of the first is lower: -0.214 ± 0.084 for the first, 0.244 ± 0.12 for the second.

LYHVLGLDKNATSDDIKKSYRKLALTYHPDKNPDNPEAADKFKEINNAHAILTDATKRNIYD and LYHVLGLDKNATSDDIKKSYRKLALLYHPDKNPDNPEAADKFKEINNAHAILTDATKRNIYD are within error of each other in abundance fitness: -0.189 ± 0.11 for the first, -0.075 ± 0.065 for the second.

Going from LYHVLGLDKNATSDDIKKSYRKLALMYHPDKNPDNPEAADKFKEINNAHAILTDATKRNIYD to LYHVLGLDKNATSDDIKKSYRKLALNYHPDKNPDNPEAADKFKEINNAHAILTDATKRNIYD, the abundance fitness falls from 0.021 ± 0.083 to -0.358 ± 0.11.

LYHVLGLDKNATSDDIKKSYRKLALPYHPDKNPDNPEAADKFKEINNAHAILTDATKRNIYD and LYHVLGLDKNATSDDIKKSYRKLALCYHPDKNPDNPEAADKFKEINNAHAILTDATKRNIYD are within error of each other in abundance fitness: -0.264 ± 0.13 for the first, -0.318 ± 0.16 for the second.

LYHVLGLDKNATSDDIKKSYRKLALQYHPDKNPDNPEAADKFKEINNAHAILTDATKRNIYD and LYHVLGLDKNATSDDIKKSYRKLALKYHPAKNPDNPEAADKFKEINNAHAILTDATKRNIYD are within error of each other in abundance fitness: 0.032 ± 0.11 for the first, 0.14 ± 0.09 for the second.

With LYHVLGLDKNATSDDIKKSYRKLALKYHPCKNPDNPEAADKFKEINNAHAILTDATKRNIYD the abundance fitness was -0.221 ± 0.13.
